The values that follow come from patent US20030091557.

For the data set, the system named is ACE-2 inhibitor peptide (the most active ACE-2 inhibitor peptide).

For the substance Angiotensin converting enzyme (ACE), the “hydrolysis of the substrate hip-his-leu (250 mM) by ACE (1.5 nM)” value was “the inhibitor did not affect the hydrolysis of the substrate, hip-his-leu (250 mM) by ACE (1.5 nM), even at 25 mM”. As to recombinant human ACE-2, the “conversion of angiotensin I to A1-9 by ACE-2” value is “This peptide also inhibited conversion of angiotensin I to A1-9 by ACE-2”.
